Here are results for two molecules from patent US20140242095A1.

In this assay the target is NOD mouse SIRPα-Fc fusion protein (mouse (NOD strain)) (UniProt P97797). The experiment in a line: competitive ELISA. In general terms: An ELISA detects its analyte on a solid surface through an enzyme-linked reagent.

B1: SIRP29-AM4-1 Fab (Fab, V domains shown)
VH: EVQLVESGGGLVQPGGSLRLSCAASGFNISYYFIHWVRQAPGKGLEWVASVYSSFGYTYYADSVKGRFTISADTSKNTAYLQMNSLRAEDTAVYYCARFTFPGAMDGFFGAYLGSLDYWGQGTLVTVSS
VL: DIQMTQSPSSLSASVGDRVTITCRASQSVSSAVAWYQQKPGKAPKLLIYSASSLYSGVPSRFSGSRSGTDFTLTISSLQPEDFATYYCQQAVNWVGALVTFGQGTKVEIK
For B1, the fold improvement in affinity against parent 29-AM3-35 is 2 fold.

B2: SIRP29-AM4-5 Fab (Fab, V domains shown)
VH: EVQLVESGGGLVQPGGSLRLSCAASGFNISYYFIHWVRQAPGKGLEWVASVYSSFGYTYYADSVKGRFTISADTSKNTAYLQMNSLRAEDTAVYYCARFTFPGLFDGFFGAYLGSLDYWGQGTLVTVSS
VL: DIQMTQSPSSLSASVGDRVTITCRASQSVSSAVAWYQQKPGKAPKLLIYSASSLYSGVPSRFSGSRSGTDFTLTISSLQPEDFATYYCQQAVNWVGALVTFGQGTKVEIK
Take B2: the fold improvement in affinity against parent 29-AM3-35 came out at 2 fold.
